What was measured:
[1] = biological target: T1, recombinant human serpinB13 (human, UniProt Q9UIV8 1-391)
T1 construct: The baculovirus-made protein (GenScript) was used for panning, ELISA and the cathepsin L assay; In the Luminex assay human serpinB13 was V5-His tagged and came from 293 cell lysates; also called rhB13
T1 sequence (looked up): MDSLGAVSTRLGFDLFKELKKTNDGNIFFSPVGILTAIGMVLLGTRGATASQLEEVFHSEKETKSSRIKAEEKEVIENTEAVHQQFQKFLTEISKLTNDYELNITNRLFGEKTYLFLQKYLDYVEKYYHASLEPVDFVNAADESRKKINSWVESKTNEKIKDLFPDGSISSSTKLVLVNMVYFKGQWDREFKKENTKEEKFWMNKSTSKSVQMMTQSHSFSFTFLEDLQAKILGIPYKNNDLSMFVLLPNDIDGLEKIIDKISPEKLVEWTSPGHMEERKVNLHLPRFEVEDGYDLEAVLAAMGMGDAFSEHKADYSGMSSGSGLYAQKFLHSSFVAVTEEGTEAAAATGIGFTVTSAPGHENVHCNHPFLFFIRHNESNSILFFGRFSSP

mouse serpinB13 (mouse) = mouse serpinB13 (mouse) (UniProt Q8CDC0); experiment: flow cytometry, isotype control staining in place of B29 and anti-EpCAM; the tissue of this panel is not named
Sequence of mouse serpinB13 (mouse) (Q8CDC0 whole entry): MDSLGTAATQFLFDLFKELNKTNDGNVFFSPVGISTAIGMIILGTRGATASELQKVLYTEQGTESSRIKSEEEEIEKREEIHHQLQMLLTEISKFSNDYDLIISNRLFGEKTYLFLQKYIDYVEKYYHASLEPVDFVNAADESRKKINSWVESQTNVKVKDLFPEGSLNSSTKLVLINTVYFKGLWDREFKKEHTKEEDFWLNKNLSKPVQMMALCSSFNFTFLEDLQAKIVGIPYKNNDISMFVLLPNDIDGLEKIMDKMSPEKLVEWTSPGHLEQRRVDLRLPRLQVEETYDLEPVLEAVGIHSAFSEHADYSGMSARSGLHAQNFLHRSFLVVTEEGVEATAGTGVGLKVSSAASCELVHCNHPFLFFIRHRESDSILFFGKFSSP

Substance	substrate cleavage by CatL (fluorescence, kinetic mode) [1]	quadrant Q1 (SerpinB13-Alexa647 high, EpCAM low), percent of cells (mouse serpinB13 (mouse))
cathepsin L (Cathepsin L Inhibitor Screening Kit, BioVision)	Inhibition of a substrate cleavage by CatL with different doses of recombinant human serpinB13 over time	–
Control Ab (antibody)	–	0.43

Source: patent publication US20260116996A1 (REGENTS OF THE UNIVERSITY OF MINNESOTA, published 2026)
